Substance: human NOV8 (EDSP, Endothelial Dual Specificity Phosphatase domain-containing protein)
- in vitro phosphorylation (dephosphorylation) assay (ERK): can dephosphorylate ERK and JNK
- in vitro phosphorylation (dephosphorylation) assay (P38 MAP kinase): has little activity on P38 MAP kinase
- in vitro phosphorylation (dephosphorylation) assay (JNK): can dephosphorylate ERK and JNK

From patent publication US20030198957
